B1: SCGB3A1 (protein, UniProt Q96QR1 21-104, looked up)
Secretoglobin family 3A …: FLVGSAKPVAQPVAALESAAEAGAGTLANPLGTLNPLKLLLSSLGIPVNHLIEGSQKCVAELGPQAVGAVKALKALLGALTVFG
B2: hK11 (protein, UniProt Q9UBX7 54-282, looked up)
Kallikrein-11: IIKGFECKPHSQPWQAALFEKTRLLCGATLIAPRWLLTAAHCLKPRYIVHLGQHNLQKEEGCEQTRTATESFPHPGFNNSLPNKDHRNDIMLVKMASPVSITWAVRPLTLSSRCVTAGTSCLISGWGSTSSPQLRLPHTLRCANITIIEHQKCENAYPGNITDTMVCASVQEGGKDSCQGDSGGPLVCNQSLQGIISWGQDPCAITRKPGVYTKVCKYVDWIQETMKNN
B3: TMPRSS5 (protein, UniProt Q9H3S3 1-457, looked up)
Transmembrane protease serine …: MSLMLDDQPPMEAQYAEEGPGPGIFRAEPGDQQHPISQAVCWRSMRRGCAVLGALGLLAGAGVGSWLLVLYLCPAASQPISGTLQDEEITLSCSEASAEEALLPALPKTVSFRINSEDFLLEAQVRDQPRWLLVCHEGWSPALGLQICWSLGHLRLTHHKGVNLTDIKLNSSQEFAQLSPRLGGFLEEAWQPRNNCTSGQVVSLRCSECGARPLASRIVGGQSVAPGRWPWQASVALGFRHTCGGSVLAPRWVVTAAHCMHSFRLARLSSWRVHAGLVSHSAVRPHQGALVERIIPHPLYSAQNHDYDVALLRLQTALNFSDTVGAVCLPAKEQHFPKGSRCWVSGWGHTHPSHTYSSDMLQDTVVPLFSTQLCNSSCVYSGALTPRMLCAGYLDGRADACQGDSGGPLVCPDGDTWRLVGVVSWGRGCAEPNHPGVYAKVAEFLDWIHDTAQDSLL
B4: IL2-RA (protein, UniProt P01589 22-272, looked up)
Interleukin-2 receptor …: ELCDDDPPEIPHATFKAMAYKEGTMLNCECKRGFRRIKSGSLYMLCTGNSSHSSWDNQCQCTSSATRNTTKQVTPQPEEQKERKTTEMQSPMQPVDQASLPGHCREPPPWENEATERIYHFVVGQMVYYQCVQGYRALHRGPAESVCKMTHGKTRWTQPQLICTGEMETSQFPGEEKPQASPEGRPESETSCLVTTTDFQIQTEMAATMETSIFTTEYQVAVAGCVFLLISVLLLSGLTWQRRQRKSRRTI
B5: PRDX5 (protein, UniProt P30044 53-214, looked up)
Peroxiredoxin-5, mitochondrial: MAPIKVGDAIPAVEVFEGEPGNKVNLAELFKGKKGVLFGVPGAFTPGCSKTHLPGFVEQAEALKAKGVQVVACLSVNDAFVTGEWGRAHKAEGKVRLLADPTGAFGKETDLLLDDSLVSIFGNRRLKRFSMVVQDGIVKALNVEPDGTGLTCSLAPNIISQL
B6: TLT-2 (protein, UniProt Q5T2D2 19-321, looked up)
Trem-like transcript 2 protein: GPSADSVYTKVRLLEGETLSVQCSYKGYKNRVEGKVWCKIRKKKCEPGFARVWVKGPRYLLQDDAQAKVVNITMVALKLQDSGRYWCMRNTSGILYPLMGFQLDVSPAPQTERNIPFTHLDNILKSGTVTTGQAPTSGPDAPFTTGVMVFTPGLITLPRLLASTRPASKTGYSFTATSTTSQGPRRTMGSQTVTASPSNARDSSAGPESISTKSGDLSTRSPTTGLCLTSRSLLNRLPSMPSIRHQDVYSTVLGVVLTLLVLMLIMVYGFWKKRHMASYSMCSDPSTRDPPGRPEPYVEVYLI

test system: plasma proteins; experiment: Plasma proteins modulated between baseline and day 28 in responders (CR, VGPR, PR; n = 19), Example 6 (Table 13); type: in vivo, human; settings: plasma protein (OLINK NPX); responders (CR, VGPR, PR; n = 19); itacitinib 200 mg or 300 mg QD with corticosteroids; day 28 vs baseline
Procedure, shortened: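 Longitudinal comparison, day 28 versus baseline, with steroid-naive (N=10) and steroid-refractory (N=18) patients combined. Proteins measured by OLINK proximity extension, log2 normalized protein expression. Differences tested by t tests, ANOVA, Pearson correlation, P<0.05 significant.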

Q: For B1, which “Fold Change, Increased Expression from Baseline to Day 28” value (from here on “Fold Change, Increased Expression”) is on record?
A: 1.5691

Q: How did the “Fold Change, Increased Expression” value turn out when B2 was run?
A: 1.2975

Q: B3 was tested. Which “Fold Change, Increased Expression” value did it give?
A: 1.3307

Q: For B4, which “Fold Change, Decreased Expression from Baseline to Day 28” value (from here on “Fold Change, Decreased Expression”) is on record?
A: −2.2452

Q: How did the “Fold Change, Decreased Expression” value turn out when B5 was run?
A: −2.0131

Q: Which “Fold Change, Decreased Expression” value does the source give for B6 here?
A: −1.8372

— patent publication US12099068B2, “Biomarkers for graft-versus-host disease” (Incyte Corporation, priority 2018, dated 2024)
